For series [1], the target named is T1, DnaK peptide H13 (P. aeruginosa).
T1 construct: 15-residue stretch of P. aeruginosa DnaK, spot H13 of the DnaK SPOT membrane, domain SBD; source: synthetic peptide, SPOT membrane (cellulose)
T1 peptide: ARNQGDALVHATRKM
Nature of the series: peptide or protein array; SPOT membrane of 209 synthetic 15-mer peptides (shift of 3) spanning DnaK on cellulose; probed with purified recombinant FliC (GST cleaved); bound FliC detected with anti-FliC antibody and alkaline phosphatase secondary antibody; intensity by ImageJ, background subtracted. The following applies: both partners purified.

For series [2], the target named is T2, DnaK peptide E20 (P. aeruginosa).
T2 construct: 15-residue stretch of P. aeruginosa DnaK, spot E20 of the DnaK SPOT membrane, domain NBD (ATPase); also called E20 (DnaK membrane); source: synthetic peptide, SPOT membrane (cellulose)
T2 peptide: VGGQTRMPLVQKTVA
The series is described as above. The following applies: both partners purified.

Series [3] deals with T3, DnaK peptide H14 (P. aeruginosa).
T3 construct: 15-residue stretch of P. aeruginosa DnaK, spot H14 of the DnaK SPOT membrane, domain SBD; source: synthetic peptide, SPOT membrane (cellulose)
T3 peptide: QGDALVHATRKMITE
The description is as above. The conditions noted are these: both partners purified.

Series [4] addresses T4, DnaK peptide E18 (P. aeruginosa).
T4 construct: 15-residue stretch of P. aeruginosa DnaK, spot E18 of the DnaK SPOT membrane, domain NBD (ATPase); source: synthetic peptide, SPOT membrane (cellulose)
T4 peptide: IHEVILVGGQTRMPL
The description is as above. The conditions noted are these: both partners purified.

For series [5], the target named is T5, FliC peptide C20 (P. aeruginosa).
T5 construct: 15-residue stretch of P. aeruginosa FliC, spot C20 of the FliC SPOT membrane, domain D3; source: synthetic peptide, SPOT membrane (cellulose)
T5 peptide: VGGGQVKNIAIAAGD
Nature of the series: peptide or protein array; SPOT membrane of 159 synthetic 15-mer peptides (shift of 3) spanning FliC on cellulose; probed with purified recombinant DnaK (GST cleaved); bound DnaK detected with anti-DnaK antibody and alkaline phosphatase secondary antibody; intensity by ImageJ, background subtracted. The conditions noted are these: both partners purified.

In series [6] the target is T6, FliC peptide F19 (P. aeruginosa).
T6 construct: 15-residue stretch of P. aeruginosa FliC, spot F19 of the FliC SPOT membrane, domain D1; source: synthetic peptide, SPOT membrane (cellulose)
T6 peptide: QRADLGAVQNRFKNT
The description is as above. The conditions noted are these: both partners purified.

Series [7] has as its target T7, FliC peptide D20 (P. aeruginosa).
T7 construct: 15-residue stretch of P. aeruginosa FliC, spot D20 of the FliC SPOT membrane, domain D2; source: synthetic peptide, SPOT membrane (cellulose)
T7 peptide: LADQLNSNSSKLGIT
The series is described as above. The conditions noted are these: both partners purified.

The target in series [8] is T8, FliC peptide A10 (P. aeruginosa).
T8 construct: 15-residue stretch of P. aeruginosa FliC, spot A10 of the FliC SPOT membrane, domain D0; source: synthetic peptide, SPOT membrane (cellulose)
T8 peptide: SLQRLTTGYRINSAK
The description is as above. The conditions noted are these: both partners purified.

In series [9] the target is T9, FliC peptide A9 (P. aeruginosa).
T9 construct: 15-residue stretch of P. aeruginosa FliC, spot A9 of the FliC SPOT membrane, domain D0; source: synthetic peptide, SPOT membrane (cellulose)
T9 peptide: LNTSLQRLTTGYRIN
The series is described as above. The following applies: both partners purified.

Series [10] addresses T10, FliC peptide E21 (P. aeruginosa).
T10 construct: 15-residue stretch of P. aeruginosa FliC, spot E21 of the FliC SPOT membrane, domain D2; source: synthetic peptide, SPOT membrane (cellulose)
T10 peptide: TVVTGYVQLNSPTAY
The description is as above. The following applies: both partners purified.

The target of series [11] is T11, FliC peptide D5 (P. aeruginosa).
T11 construct: 15-residue stretch of P. aeruginosa FliC, spot D5 of the FliC SPOT membrane, domain D3; source: synthetic peptide, SPOT membrane (cellulose)
T11 peptide: IPNLSARARTVFTAD
The series is described as above. The following applies: both partners purified.

For series [12], the target named is T12, FliC peptide B18 (P. aeruginosa).
T12 construct: 15-residue stretch of P. aeruginosa FliC, spot B18 of the FliC SPOT membrane, domain D1; source: synthetic peptide, SPOT membrane (cellulose)
T12 peptide: TRISDTTTFGGRKLL
The description is as above. The following applies: both partners purified.

Series [13] addresses T13, FliC peptide E20 (P. aeruginosa).
T13 construct: 15-residue stretch of P. aeruginosa FliC, spot E20 of the FliC SPOT membrane, domain D2; also called E20 (FliC membrane); source: synthetic peptide, SPOT membrane (cellulose)
T13 peptide: ATTTVVTGYVQLNSP
The series is described as above. The conditions noted are these: both partners purified.

The target in series [14] is T14, FliC peptide A16 (P. aeruginosa).
T14 construct: 15-residue stretch of P. aeruginosa FliC, spot A16 of the FliC SPOT membrane, domain D1; source: synthetic peptide, SPOT membrane (cellulose)
T14 peptide: AGLQISNRLSNQISG
Described as above. The conditions noted are these: both partners purified.

The target of series [15] is T15, FliC peptide F22 (P. aeruginosa).
T15 construct: 15-residue stretch of P. aeruginosa FliC, spot F22 of the FliC SPOT membrane, domain D1; source: synthetic peptide, SPOT membrane (cellulose)
T15 peptide: NRFKNTIDNLTNISE
The series is described as above. The conditions noted are these: both partners purified.

Series [16] has as its target T16, FliC peptide E22 (P. aeruginosa).
T16 construct: 15-residue stretch of P. aeruginosa FliC, spot E22 of the FliC SPOT membrane, domain D2; source: synthetic peptide, SPOT membrane (cellulose)
T16 peptide: TGYVQLNSPTAYSVS
The series is described as above. The conditions noted are these: both partners purified.

The target of series [17] is SOD1bar mutant G41D (SOD1bar-G41D), FRET folding sensor. Nature of the series: cell-based or functional assay.

B1: purified recombinant P. aeruginosa FliC (natural protein, UniProt A0A0H2Z7X1 1-488, looked up)
chain: MALTVNTNIASLNTQRNLNASSNDLNTSLQRLTTGYRINSAKDDAAGLQISNRLSNQISGLNVATRNANDGISLAQTAEGALQQSTNILQRIRDLALQSANGSNSDADRAALQKEVAAQQAELTRISDTTTFGGRKLLDGSFGTTSFQVGSNAYETIDISLQNASASAIGSYQVGSNGAGTVASVAGTATASGIASGTVNLVGGGQVKNIAIAAGDSAKAIAEKMDGAIPNLSARARTVFTADVSGVTGGSLNFDVTVGSNTVSLAGVTSTQDLADQLNSNSSKLGITASINDKGVLTITSATGENVKFGAQTGTATAGQVAVKVQGSDGKFEAAAKNVVAAGTAATTTVVTGYVQLNSPTAYSVSGTGTQASQVFGNASAAQKSSVASVDISTADGAQNAIAVVDNALAAIDAQRADLGAVQNRFKNTIDNLTNISENATNARSRIKDTDFAAETAALSKNQVLQQAGTAILAQANQLPQAVLSLLR
notes: FliC (flagellin type B) of P. aeruginosa UCBPP-PA14, gene amplified with primers fliCFw/Rv and cloned BamHI/XhoI into pGEX-6P-1; also called FliC-GST (before cleavage); source: E. coli BL21(λDE3), pGEX-6P-1-fliC, purified (Glutathione Sepharose 4B, eluted by prescission protease)
As to B1, the Intensity in series [1] is 2.23 relative intensity; in [2], 2.22 relative intensity; in series [3], 3.34 relative intensity; in [4], 2.23 relative intensity.

B2: purified recombinant P. aeruginosa DnaK (natural protein)
chain: not shown
notes: DnaK of P. aeruginosa UCBPP-PA14, gene amplified with primers dnaKFw/Rv and cloned BamHI/XhoI into pGEX-6P-1; also called DnaK-GST (before cleavage); source: E. coli BL21(λDE3), pGEX-6P-1-dnaK, purified (Glutathione Sepharose 4B, eluted by prescission protease)
As to B2, the Intensity in series [5] amounted to 3.05 relative intensity; in [6], 2.34 relative intensity; in series [7] it was 2.85 relative intensity; in [8], 2.4 relative intensity; in [9], 2.51 relative intensity; in series [10], 2.87 relative intensity. The Intensity amounted to 2.22 relative intensity in series [11]; 5.07 relative intensity in series [12]; 2.36 relative intensity in series [13]; 4.17 relative intensity in series [14]; 2.3 relative intensity in [15]; 3.55 relative intensity in series [16]. Further, the “decrease of the melting temperature (Tm) of SOD1bar-G41D with DnaK (20 μM), pH 7, fast relaxation imaging (FReI); not affected by ATP or AMP-PNP” value in [17] was approximately 10 K. Moreover, in series [17], the “fold decrease of the maximal ΔD/A Initial of DnaK+SOD1bar-G41D at pH 6 when 2 mM ATP or AMP-PNP was added” value is approximately 1.7 fold. Further, in series [17], the “fold increase of kobs of the ΔD/A Initial curve of DnaK+SOD1bar-G41D at pH 6 when 2 mM AMP-PNP was added” value is 2 fold. Also, in series [17], the “fold increase of kobs of the ΔD/A Initial curve of DnaK+SOD1bar-G41D at pH 6 when 2 mM ATP was added” value turned out to be 4 fold. For the same molecule, the “melting temperature (Tm) of SOD1bar-G41D when supplemented with DnaK, FReI” value in [17] was determined as 308 K. The “reduction of the folding rate (kf) of SOD1bar-G41D at 310 K with DnaK (20 μM), pH 7, FReI” value in series [17] is approximately 3 fold.

(Values after publication PMC11816700, “Multiple Chaperone DnaK–FliC Flagellin Interactions are Required for Pseudomonas aeruginosa Flagellum Assembly and Indicate a New Function for DnaK” (Microbial Biotechnology, 2025).)
